Molecular target: specific IgE from a pool of sera from plantain-allergic patients
Experiment: inhibition ELISA: nPla I 1 coated on plate, pooled-serum IgE inhibited by rPla I 1.0101, detection with HRP-labeled anti-human IgE

% inhibition of IgE-binding: 80%
B1: recombinant Pla I 1 allergen, variant 0101 (rPla I 1.0101), expressed in Pichia pastoris (protein)
chain: ETQTSHPAKFHVEGEVYCNVCHSRNLINELSERMAGAQVQLDCKDDSKKVIYSIGGETDQDGVYRLPVVGYHEDCEIKLVKSSRPDCSEIPKLAKGTIQTSKVDLSKNTTITEKTRHVKPLSFRAKTDAPGC
modifications: partly N-glycosylated (glycosylated 22 kDa and non-glycosylated 17 kDa forms; potential N-glycosylation site at position 107)

Source: US20040071717A1
